Here are results for 1 molecule from patent US5783384, “Selection of binding-molecules” (President and Fellows of Harvard College).

This data set concerns the target T1, GCN4 basic region peptide with 3-residue linker (monomeric) (UniProt P03069 SEQ:1-24).
T1 chain: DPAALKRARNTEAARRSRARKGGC
Kind of data set: EMSA; disulfide-tethered complex, reduction gel shift with 2-ME or DTT, pH 7.5 or 8.5; outcome only in figure. As to conditions: protein: synthetic; tags: synthetic peptide, disulfide-tethered to DNA through linker thiol. The procedure: To test if the reduction potential of the disulfide bond corresponds to the affinity of the peptide for the adjacent DNA sequence, wild-type and mutant double-stranded DNA-peptide complexes were incubated in the presence of reducing agents 2-mercaptoethanol (2-ME) or dithiothreitol (DTT). (FIG. 4) The free (lower bands) vs. coupled DNA molecules (upper bands) were resolved on 20% nondenaturing polyacrylamide gel after. The wild-type peptide-DNA complex (wt) was consistently more resistant to reduction than the complex having mutation in either peptide (L, P) or DNA sequence (M3). Peptide-DNA complexes differ with respect to the gel mobility as well. The mutant complexes (L, P, M3) have lower gel mobility than the wild-type complex (wt), although the corresponding free (uncomplexed) DNA molecules run at the same speed.
Annealing of the oligonucleotide-peptide complex with the complementary oligonucleotide was done as described above, in the binding buffer of the same composition and desired pH (7.5 or 8.5). 2-ME or DTT was added and reactions were incubated at defined temperature in a water bath. Glycerol-running dye mixture was added (final concentration of glycerol is 5%) and reactions were loaded on 20% nondenaturing gel and run at low voltage (up to 120 V) for 16–24 hours at room temperature. (See FIG. 4).

B1: WT GCN4 half-site 39-mer (dsDNA)
DNA 1: AAGGTTAAACGTGCAAGTCATCGGTATAGGTCGAGAAGT
DNA 2: ACTTCTCGACCTATACCGATGACTTGCACGTTTAACCTT
modifications: N6-thioalkyl-dA adjacent to the half-site (disulfide tether)
As for B1, the binding result is “binds”.
